Source: US20240218057A1

Experiments:
Assay in all cases: cell-based or functional assay
[1] = molecular target: SARS-COV-2 spike protein A475V on pseudotyped virus (SARS-CoV-2) (UniProt P0DTC2)
[2] = molecular target: SARS-COV-2 spike protein E484K (R683G) on pseudotyped virus (SARS-CoV-2) (UniProt P0DTC2)
[3] = molecular target: SARS-COV-2 spike protein K417N on pseudotyped virus (SARS-CoV-2) (UniProt P0DTC2)
[4] = molecular target: SARS-COV-2 spike protein N440K on pseudotyped virus (SARS-CoV-2) (UniProt P0DTC2)
[5] = molecular target: SARS-COV-2 spike protein N501Y on pseudotyped virus (SARS-CoV-2) (UniProt P0DTC2)
[6] = molecular target: SARS-COV-2 spike protein R346S on pseudotyped virus (SARS-CoV-2) (UniProt P0DTC2)
[7] = molecular target: SARS-COV-2 spike protein R683G on pseudotyped virus (SARS-CoV-2) (UniProt P0DTC2)
[8] = molecular target: SARS-CoV-2 spike protein A475V (pseudovirus) (SARS-CoV-2) (UniProt P0DTC2)
[9] = molecular target: SARS-CoV-2 spike protein E484K (R683G) (pseudovirus) (SARS-CoV-2) (UniProt P0DTC2)
[10] = molecular target: SARS-CoV-2 spike protein K417N (pseudovirus) (SARS-CoV-2) (UniProt P0DTC2)
[11] = molecular target: SARS-CoV-2 spike protein K417N/E484K/N501Y (R683G) (pseudovirus) (SARS-CoV-2) (UniProt P0DTC2)
[12] = molecular target: SARS-CoV-2 spike protein N440K (pseudovirus) (SARS-CoV-2) (UniProt P0DTC2)
[13] = molecular target: SARS-CoV-2 spike protein N501Y (pseudovirus) (SARS-CoV-2) (UniProt P0DTC2)
[14] = molecular target: SARS-CoV-2 spike protein Q493R (pseudovirus) (SARS-CoV-2) (UniProt P0DTC2)
[15] = molecular target: SARS-CoV-2 spike protein R346S (pseudovirus) (SARS-CoV-2) (UniProt P0DTC2)
[16] = molecular target: SARS-CoV-2 spike protein R683G (pseudovirus) (SARS-CoV-2) (UniProt P0DTC2)

Work on C121 (antibody) yielded a neutralization IC50 [1] of 2.53 ng/mL, a neutralization IC90 [1] of 18.3 ng/mL and a neutralization IC50 [2] greater than 1000 ng/mL. For the same substance, the neutralization IC90 [2] was greater than 1000 ng/mL, the neutralization IC50 [3] was 3.1 ng/mL and the neutralization IC90 [3] was 16.3 ng/mL. The neutralization IC50 [4] was 3.5 ng/mL, the neutralization IC90 [4] was 18.2 ng/mL and the neutralization IC50 [5] was 3.75 ng/mL. The neutralization IC90 [5] was 18.9 ng/mL, the neutralization IC50 [6] was 3.63 ng/mL and the neutralization IC90 [6] was 15.6 ng/mL. For the same substance, the neutralization IC50 [7] was 1.67 ng/mL and the neutralization IC90 [7] was 10.8 ng/mL.
For C135 (antibody), the neutralization IC50 [1] was 4.61 ng/mL, the neutralization IC90 [1] was 27.2 ng/mL and the neutralization IC50 [2] was 1.99 ng/mL. For the same substance, the neutralization IC90 [2] was 20 ng/mL, the neutralization IC50 [3] was 3.48 ng/mL and the neutralization IC90 [3] was 14.7 ng/mL. For the same substance, the neutralization IC50 [4] was greater than 1000 ng/mL, the neutralization IC90 [4] was greater than 1000 ng/mL and the neutralization IC50 [5] was 12.9 ng/mL. For the same substance, the neutralization IC90 [5] was 141 ng/mL, the neutralization IC50 [6] was greater than 1000 ng/mL and the neutralization IC90 [6] was greater than 1000 ng/mL. For the same substance, the neutralization IC50 [7] was 2.71 ng/mL and the neutralization IC90 [7] was 22.8 ng/mL.
C144 (antibody) gave a neutralization IC50 [1] of 3.19 ng/mL, a neutralization IC90 [1] of 16.2 ng/mL and a neutralization IC50 [2] greater than 1000 ng/mL. It also gave a neutralization IC90 [2] greater than 1000 ng/mL, a neutralization IC50 [3] of 1.84 ng/mL and a neutralization IC90 [3] of 11.5 ng/mL. The neutralization IC50 [4] was 2.4 ng/mL, the neutralization IC90 [4] was 13.5 ng/mL and the neutralization IC50 [5] was 3.05 ng/mL. The neutralization IC90 [5] was 18.9 ng/mL, the neutralization IC50 [6] was 3.41 ng/mL and the neutralization IC90 [6] was 16.7 ng/mL. For the same substance, the neutralization IC50 [7] was 1.23 ng/mL, the neutralization IC90 [7] was 6.66 ng/mL and the IC50 neutralization [8] was 3.2 ng/mL. The IC90 neutralization [8] was 16.2 ng/mL, the IC50 neutralization [9] was greater than 1000 ng/mL and the IC90 neutralization [9] was greater than 1000 ng/mL. It also gave an IC50 neutralization [10] of 1.8 ng/mL, an IC90 neutralization [10] of 11.5 ng/mL and an IC50 neutralization [11] greater than 1000 ng/mL. The IC90 neutralization [11] was greater than 1000 ng/mL, the IC50 neutralization [12] was 2.4 ng/mL and the IC90 neutralization [12] was 13.5 ng/mL. It also gave an IC50 neutralization [13] of 3 ng/mL, an IC90 neutralization [13] of 18.9 ng/mL and an IC50 neutralization [14] greater than 1000 ng/mL. For the same substance, the IC90 neutralization [14] was greater than 1000 ng/mL, the IC50 neutralization [15] was 3.4 ng/mL and the IC90 neutralization [15] was 16.7 ng/mL. It also gave an IC50 neutralization [16] of 1.2 ng/mL and an IC90 neutralization [16] of 6.7 ng/mL.
